The values below come from article PMC6993239.

Experiment [1] addresses recombinant human FcγRI, histidine-tagged (human) (UniProt P12314). The experiment in a line: SPR. For orientation: SPR reads the build-up and loss of mass on a sensor chip optically.
The target is the same in experiment [2]. Nature of the experiment: SPR; Biacore T200; His-tagged huFcγRI (0.8 nM) captured on an anti-histidine antibody CM5 chip; pertuzumab or conjugates 0.78-100 nM as analyte, 5 min association, 5 min dissociation, 30 μL/min; HBS-P+ with 50 μM EDTA; 1:1 fit (RI set to 0).
The target in experiment [3] is histidine-tagged mouse FcγRI (mouse) (UniProt P26151). The experiment in a line: SPR; Biacore T200; His-tagged muFcγRI (2.4 nM) captured on an anti-histidine antibody CM5 chip; pertuzumab or conjugates as analyte, association and dissociation 120 s each; steady-state analysis.
Sequence of UniProt P26151 (P26151 25-297): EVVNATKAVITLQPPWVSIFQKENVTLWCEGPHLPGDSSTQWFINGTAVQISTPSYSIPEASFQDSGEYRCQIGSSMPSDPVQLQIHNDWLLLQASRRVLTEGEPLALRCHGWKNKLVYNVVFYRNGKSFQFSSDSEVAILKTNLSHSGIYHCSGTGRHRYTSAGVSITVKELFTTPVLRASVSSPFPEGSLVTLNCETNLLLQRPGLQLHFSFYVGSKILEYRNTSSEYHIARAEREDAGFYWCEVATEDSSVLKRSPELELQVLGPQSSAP

Sequence of UniProt P12314 (P12314 16-292): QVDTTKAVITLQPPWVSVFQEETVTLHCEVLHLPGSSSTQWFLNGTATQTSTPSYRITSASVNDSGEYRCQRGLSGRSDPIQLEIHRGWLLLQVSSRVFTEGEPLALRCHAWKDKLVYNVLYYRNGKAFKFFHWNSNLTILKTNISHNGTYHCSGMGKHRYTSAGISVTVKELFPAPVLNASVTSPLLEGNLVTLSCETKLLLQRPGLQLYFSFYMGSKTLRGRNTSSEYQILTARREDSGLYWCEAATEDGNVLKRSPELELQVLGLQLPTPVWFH

As for DFO-^sspertuzumab-EndoS, the off-rate constant (koff) (usually the rate constant with which the complex falls apart) in experiment [1] came out at 0.00387 s⁻¹.
With DFO-^nsspertuzumab (antibody), in experiment [2], the Kd (in general, the concentration at which binding is half-saturated) was determined as 4.1 nM and the interaction half-time was found to be 7.4 min. Also, the Kd in experiment [3] turned out to be 250 nM.
In the case of DFO-^sspertuzumab-βGal (antibody), in experiment [2], the interaction half-time stood at 8 min. In experiment [3], this substance yielded a Kd of 210 nM.
Turning to native pertuzumab (antibody), in experiment [2], the interaction half-time worked out at 7.3 min. In experiment [3], the Kd came to 250 nM.
Consider DFO-^nsspertuzumab, for which the koff in experiment [1] stood at 0.00156 s⁻¹.
On to DFO-^sspertuzumab-EndoS (antibody), for which the Kd in experiment [2] stood at 17.4 nM; in experiment [3], 1100 nM. For the same substance, in experiment [2], the interaction half-time was 3 min.
